According to article PMC4187570, “Clathrin complexes with the inhibitor kappa B kinase signalosome: imaging the interactome” (Physiological Reports, 2014):

B1: IKKβ (natural protein, human (endogenous in A549), UniProt O14920 1-756, looked up)
chain: MSWSPSLTTQTCGAWEMKERLGTGGFGNVIRWHNQETGEQIAIKQCRQELSPRNRERWCLEIQIMRRLTHPNVVAARDVPEGMQNLAPNDLPLLAMEYCQGGDLRKYLNQFENCCGLREGAILTLLSDIASALRYLHENRIIHRDLKPENIVLQQGEQRLIHKIIDLGYAKELDQGSLCTSFVGTLQYLAPELLEQQKYTVTVDYWSFGTLAFECITGFRPFLPNWQPVQWHSKVRQKSEVDIVVSEDLNGTVKFSSSLPYPNNLNSVLAERLEKWLQLMLMWHPRQRGTDPTYGPNGCFKALDDILNLKLVHILNMVTGTIHTYPVTEDESLQSLKARIQQDTGIPEEDQELLQEAGLALIPDKPATQCISDGKLNEGHTLDMDLVFLFDNSKITYETQISPRPQPESVSCILQEPKRNLAFFQLRKVWGQVWHSIQTLKEDCNRLQQGQRAAMMNLLRNNSCLSKMKNSMASMSQQLKAKLDFFKTSIQIDLEKYSEQTEFGITSDKLLLAWREMEQAVELCGRENEVKLLVERMMALQTDIVDLQRSPMGRKQGGTLDDLEEQARELYRRLREKPRDQRTEGDSQEMVRLLLQAIQSFEKKVRVIYTQLSKTVVCKQKALELLPKVEEVVSLMNEDEKTVVRLQEKRQKELWNLLKIACSKVRGPVSGSPDSMNASRLSQPGQLMSQPSTASNSLPEPAKKSEELVAEAHNLCTLLENAIQDTVREQDQSFTALDWSWLQTEEEEHSCLEQAS
notes: also called IKBKB; source: endogenous, A549 cells (M-PER lysate for the pull-down; fixed, permeabilised cells for FRET)

Experiments:
Experiment in all cases: FRET or BRET; corrected FRET between fluorophore-labelled secondary antibodies (Alexa 488:Cy3, Cy3:Cy5) on primary antibodies, indirect immunofluorescence of acetone/methanol-fixed resting A549 cells, deconvolved Z-stacks; epitopes within about 30 nm; FRETN = cFRET normalised to the acceptor's emission, mean of four sets of experiments
[1] = molecular target: IKKα (human (endogenous in A549)) (UniProt O15111)
[2] = molecular target: IKKβ (human (endogenous in A549)) (UniProt O14920)
IKKα = molecular target: T1, IKKα (human (endogenous in A549), UniProt O15111 1-745); conditions: partners not purified
T1 construct: also called CHUK; source: endogenous, A549 cells (M-PER lysate for the pull-down; fixed, permeabilised cells for FRET)
T1 sequence (looked up): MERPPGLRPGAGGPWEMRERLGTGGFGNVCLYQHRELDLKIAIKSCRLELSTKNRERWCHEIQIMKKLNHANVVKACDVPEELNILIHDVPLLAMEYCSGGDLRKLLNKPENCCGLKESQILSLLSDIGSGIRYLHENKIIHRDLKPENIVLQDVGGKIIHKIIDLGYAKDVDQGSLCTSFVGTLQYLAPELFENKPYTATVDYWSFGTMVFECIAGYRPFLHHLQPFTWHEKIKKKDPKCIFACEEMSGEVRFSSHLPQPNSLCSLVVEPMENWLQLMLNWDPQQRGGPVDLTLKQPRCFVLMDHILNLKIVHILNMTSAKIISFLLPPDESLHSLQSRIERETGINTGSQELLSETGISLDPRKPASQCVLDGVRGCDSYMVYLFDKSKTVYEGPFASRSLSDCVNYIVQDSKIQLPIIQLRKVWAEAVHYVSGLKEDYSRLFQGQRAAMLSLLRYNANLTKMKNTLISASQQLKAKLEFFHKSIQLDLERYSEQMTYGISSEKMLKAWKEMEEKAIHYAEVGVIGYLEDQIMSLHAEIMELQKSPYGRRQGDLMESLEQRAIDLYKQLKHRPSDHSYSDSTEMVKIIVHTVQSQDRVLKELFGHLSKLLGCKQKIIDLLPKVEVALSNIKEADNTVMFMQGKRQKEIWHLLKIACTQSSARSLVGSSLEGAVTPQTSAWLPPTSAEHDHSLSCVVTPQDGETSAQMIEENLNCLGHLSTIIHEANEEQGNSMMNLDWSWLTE

IKKβ = molecular target: B1; conditions: partners not purified

heat-shock protein-90 (from UniProt P07900 1-732) (natural protein)
normalized FRET (FRETN) [1]: 0.3
normalized FRET (FRETN) [2]: 0.632

B1
normalized FRET (FRETN) (IKKα): 0.362

B2: clathrin heavy chain 1 (natural protein, human (endogenous in A549), UniProt Q00610 1-1675, looked up)
chain: MAQILPIRFQEHLQLQNLGINPANIGFSTLTMESDKFICIREKVGEQAQVVIIDMNDPSNPIRRPISADSAIMNPASKVIALKAGKTLQIFNIEMKSKMKAHTMTDDVTFWKWISLNTVALVTDNAVYHWSMEGESQPVKMFDRHSSLAGCQIINYRTDAKQKWLLLTGISAQQNRVVGAMQLYSVDRKVSQPIEGHAASFAQFKMEGNAEESTLFCFAVRGQAGGKLHIIEVGTPPTGNQPFPKKAVDVFFPPEAQNDFPVAMQISEKHDVVFLITKYGYIHLYDLETGTCIYMNRISGETIFVTAPHEATAGIIGVNRKGQVLSVCVEEENIIPYITNVLQNPDLALRMAVRNNLAGAEELFARKFNALFAQGNYSEAAKVAANAPKGILRTPDTIRRFQSVPAQPGQTSPLLQYFGILLDQGQLNKYESLELCRPVLQQGRKQLLEKWLKEDKLECSEELGDLVKSVDPTLALSVYLRANVPNKVIQCFAETGQVQKIVLYAKKVGYTPDWIFLLRNVMRISPDQGQQFAQMLVQDEEPLADITQIVDVFMEYNLIQQCTAFLLDALKNNRPSEGPLQTRLLEMNLMHAPQVADAILGNQMFTHYDRAHIAQLCEKAGLLQRALEHFTDLYDIKRAVVHTHLLNPEWLVNYFGSLSVEDSLECLRAMLSANIRQNLQICVQVASKYHEQLSTQSLIELFESFKSFEGLFYFLGSIVNFSQDPDVHFKYIQAACKTGQIKEVERICRESNCYDPERVKNFLKEAKLTDQLPLIIVCDRFDFVHDLVLYLYRNNLQKYIEIYVQKVNPSRLPVVIGGLLDVDCSEDVIKNLILVVRGQFSTDELVAEVEKRNRLKLLLPWLEARIHEGCEEPATHNALAKIYIDSNNNPERFLRENPYYDSRVVGKYCEKRDPHLACVAYERGQCDLELINVCNENSLFKSLSRYLVRRKDPELWGSVLLESNPYRRPLIDQVVQTALSETQDPEEVSVTVKAFMTADLPNELIELLEKIVLDNSVFSEHRNLQNLLILTAIKADRTRVMEYINRLDNYDAPDIANIAISNELFEEAFAIFRKFDVNTSAVQVLIEHIGNLDRAYEFAERCNEPAVWSQLAKAQLQKGMVKEAIDSYIKADDPSSYMEVVQAANTSGNWEELVKYLQMARKKARESYVETELIFALAKTNRLAELEEFINGPNNAHIQQVGDRCYDEKMYDAAKLLYNNVSNFGRLASTLVHLGEYQAAVDGARKANSTRTWKEVCFACVDGKEFRLAQMCGLHIVVHADELEELINYYQDRGYFEELITMLEAALGLERAHMGMFTELAILYSKFKPQKMREHLELFWSRVNIPKVLRAAEQAHLWAELVFLYDKYEEYDNAIITMMNHPTDAWKEGQFKDIITKVANVELYYRAIQFYLEFKPLLLNDLLMVLSPRLDHTRAVNYFSKVKQLPLVKPYLRSVQNHNNKSVNESLNNLFITEEDYQALRTSIDAYDNFDNISLAQRLEKHELIEFRRIAAYLFKGNNRWKQSVELCKKDSLYKDAMQYASESKDTELAEELLQWFLQEEKRECFGACLFTCYDLLRPDVVLETAWRHNIMDFAMPYFIQVMKEYLTKVDKLDASESLRKEEEQATETQPIVYGQPQLMLTAGPSVAVPPQAPFGYGYTAPPYGQPQPGFGYSM
notes: clathrin heavy chain 1 (CLTC), human, SwissProt entry name CLH1_HUMAN; also called CHC; CLH1; source: endogenous, A549 cells (M-PER lysate for the pull-down; fixed, permeabilised cells for FRET)
normalized FRET (FRETN) (IKKβ): 0.522
normalized FRET (FRETN) (IKKα): 0.7
